Patent US7943337B2, “Method for screening a protease” (Asahi Kasei Pharma Corporation, priority 2003, dated 2011)

Legend:
Type in all cases: biochemical
[1] = Screening of protease for hemoglobin A1c determination (pH 7.5); conditions: pH 7.5, 37° C. 60 minutes; 550 nm, reference 595 nm; FOD923 developing solution
Description: (§1) A screening method is shown in which a protease that cleaves a glycated peptide from N-terminal-glycated pentapeptide of a hemoglobin β-chain without substantially cleaving a glycated amino acid or glycated peptide from N-terminal-glycated pentapeptide of a hemoglobin α-chain. Each 10 μl of a sample for screening was placed in 3 wells of a 96-well plate, respectively. Then, the first well was supplemented with 50 μl of an α-solution, the second well was supplemented with 50 μl of a β-solution, and the third well was supplemented with 50 μl of a control solution. After the plate was incubated at 37° C. for 60 minutes, 50 μl of distilled water and 50 μl of a developing solution were added, and the whole was left at room temperature for 30 minutes. Then, the absorbance at a measuring wavelength of 550 nm and a reference wavelength of 595 nm were determined using a Microplate Reader (model 550, manufactured by Bio-Rad), to select a sample having a difference in the absorbance between the β-solution-supplemented well and the control solution-supplemented well larger than a difference in the absorbance between the α-solution-supplemented well and the control solution-supplemented well. Thus the protease of object was screened. The samples to be used include: carboxypeptidase B (manufactured by Sigma-Aldrich Corp.); carboxypeptidase W (manufactured by Wako Pure Chemical Industries, Ltd.); carboxypeptidase Y (manufactured by Oriental Yeast Co., Ltd.); protease (type XXVII nagase: manufactured by Sigma-Aldrich Corp.); protease (type VIII Subtilisin Carlsberg: manufactured by Sigma-Aldrich Corp.); protease (type XXIV Bacterial: manufactured by Sigma-Aldrich Corp.); Proteinase K (manufactured by Wako Pure Chemical Industries, Ltd.); neutral proteinase (manufactured by Toyobo Co., Ltd.); carboxypeptidase A (manufactured by Wako Pure Chemical Industries, Ltd.); thermolysin (manufactured by Wako Pure Chemical Industries, Ltd.); and distilled water. To confirm a degree of color development caused by a developing solution, 10 μl of 1 mM FVH (manufactured by Peptide Institute Inc.) and 1 mM FVL (manufactured by Peptide Institute Inc.) were placed in a well severally, followed by adding 50 μl of the control solution. The whole was incubated at 37° C. for 60 minutes. Then, 50 μl of distilled water and 50 μl of the developing solution were added and the whole was left at room temperature for 30 minutes, followed by the determination in a similar manner as described above.
(§2) 0.2 mM α-Glycated pentapeptide (manufactured by Peptide Institute Inc.)
(§3) 0.09% 4-Aminoantipyrine (manufactured by Wako Pure Chemical Industries, Ltd.)
(§4) 0.06% TODB (manufactured by Dojindo Laboratories)
(§5) 15 U/ml Peroxidase (manufactured by Sigma-Aldrich Corp.)
(§6) Various bacteria were cultured with shaking in Difco Lactobacilli MRS Broth (manufactured by Becton, Dickinson and Company), a MM medium (2.5% mannose, 2.5% beer yeast extract, pH7.0), and a YPG medium (2% glucose, 1% polypeptone, 2% yeast extract, 0.1% potassium dihydrogen phosphate, 0.05% magnesium sulfate heptahydrate, pH 7.0) at a temperature of from 28 to 30° C. for 1 to 7 days. Then, cells were removed by centrifugation from the culture solutions to obtain culture supernatants. A sample was prepared by diluting the obtained culture supernatants 10-fold with a 10 mM potassium phosphate buffer (pH7.5), and the determination was performed in a similar manner as Example 1.

[2] = Screening of protease for hemoglobin A1c determination (pH 3.5); conditions: pH 3.5, 37° C. 60 minutes; 550 nm, reference 595 nm; FOD923 developing solution
Description: (§7) A screening method is shown in which a protease that cleaves a glycated peptide from N-terminal-glycated pentapeptide of a hemoglobin β-chain without substantially cleaving a glycated amino acid or glycated peptide from N-terminal-glycated pentapeptide of a hemoglobin α-chain. Each 10 μl of a sample for screening was placed in 3 wells of a 96-well plate, respectively. Then, the first well was supplemented with 50 μl of an α-solution, the second well was supplemented with 50 μl of a β-solution, and the third well was supplemented with 50 μl of a control solution. After the plate was incubated at 37° C. for 60 minutes, 50 μl of pH-regulating solution and 50 μl of a developing solution were added, and the whole was left at room temperature for 30 minutes. Then, the absorbance at a measuring wavelength of 550 nm and a reference wavelength of 595 nm were determined using a Microplate Reader (model 550, manufactured by Bio-Rad), to select a sample having a difference in the absorbance between the β-solution-supplemented well and the control solution-supplemented well larger than a difference in the absorbance between the α-solution-supplemented well and the control solution-supplemented well. Thus the protease of object was screened. The samples to be used include: carboxypeptidase B (manufactured by Sigma-Aldrich Corp.); carboxypeptidase W (manufactured by Wako Pure Chemical Industries, Ltd.); carboxypeptidase Y (manufactured by Oriental Yeast Co., Ltd.); protease (type XXVII nagase: manufactured by Sigma-Aldrich Corp.); protease (type VIII Subtilisin Carlsberg: manufactured by Sigma-Aldrich Corp.); protease (type XXIV Bacterial: manufactured by Sigma-Aldrich Corp.); Proteinase K (manufactured by Wako Pure Chemical Industries, Ltd.); neutral proteinase (manufactured by Toyobo Co., Ltd.); and distilled water. To confirm a degree of color development caused by a developing solution, 10 μl of 1 mM FVH (manufactured by Peptide Institute Inc.) and 1 mM FVL (manufactured by Peptide Institute Inc.) were placed in a well severally, followed by adding 50 μl of the control solution. The whole was incubated at 37° C. for 60 minutes. Then, 50 μl of a pH-regulating solution and 50 μl of the developing solution were added and the whole was left at room temperature for 30 minutes, followed by the determination in a similar manner as described above.
(§8) 50 mM Acetate-sodium acetate (pH3.5)
(§9) 0.2 mM β-Glycated pentapeptide (manufactured by Peptide Institute Inc.)
(§10) 0.09% 4-aminoantipyrine (manufactured by Wako Pure Chemical Industries, Ltd.)
as §4, §5

[3] = Screening of protease (pH 7.5), control solution without substrate; conditions: pH 7.5, no substrate; 550 nm, reference 595 nm
Description: as §1, §3, §4, §5, §6

[4] = Screening of protease (pH 3.5), control solution without substrate; conditions: pH 3.5, no substrate; 550 nm, reference 595 nm
Description: as §7, §8, §10, §4, §5

[5] = Screening of protease for hemoglobin A1c determination (pH 3.5); conditions: pH 3.5, 37° C. 60 minutes; 550 nm, reference 595 nm; FOD923 developing solution; remark: listed apart in the source
Description: as §7, §8, §2, §10, §4, §5

[6] = Screening of protease for hemoglobin A1c determination (pH 7.5); conditions: pH 7.5, 37° C. 60 minutes; 550 nm, reference 595 nm; FOD923 developing solution; remark: listed apart in the source
Description: as §1, §9, §3, §4, §5, §6

B1: protease type XXVII: protease (type XXVII nagase: manufactured by Sigma-Aldrich Corp.) (protein, UniProt P00782 108-382, looked up)
Subtilisin BPN': AQSVPYGVSQIKAPALHSQGYTGSNVKVAVIDSGIDSSHPDLKVAGGASMVPSETNPFQDNNSHGTHVAGTVAALNNSIGVLGVAPSASLYAVKVLGADGSGQYSWIINGIEWAIANNMDVINMSLGGPSGSAALKAAVDKAVASGVVVVAAAGNEGTSGSSSTVGYPGKYPSVIAVGAVDSSNQRASFSSVGPELDVMAPGVSIQSTLPGNKYGAYNGTSMASPHVAGAAALILSKHPNWTNTQVRSSLENTTTKLGDSFYYGKGLINVQAAAQ
[1]
  α-Solution (absorbance, RAW DATA): 0.021
[2]
  β-Solution (absorbance, RAW DATA): 0.021
[3]
  control solution (absorbance, RAW DATA): 0.016
[4]
  control solution (absorbance, RAW DATA): 0.019
[5]
  α-Solution (absorbance, RAW DATA): 0.025
[6]
  β-Solution (absorbance, RAW DATA): 0.031
